B1: EHEE_rd2_0191 (parent)
chain: TTEYTFTDDEEARRAIEELKKRGLTFRYEKHGTTWRVRVD

Variants of: B1
Assay: folding stability dG (cDNA display proteolysis); higher = more stable
Details: PBS, room temperature

Going from TTEYTFTDDEEARRAIEELKKRGLTFRHEKHGTTWRVRVD [Y28H] to TTEYTFTDDEEARRAIEELKKRGLTFRDEKHGTTWRVRVD [Y28D], the “folding stability dG” value falls from 0.592 kcal/mol to -0.987 kcal/mol.

Going from TTEYTFTDDEEARRAIEELKKRGLTFRQEKHGTTWRVRVD [Y28Q] to TTEYTFTDDEEARRAIEELKKRGLTFRFEKHGTTWRVRVD [Y28F], the “folding stability dG” value rises from 0.764 kcal/mol to 2.06 kcal/mol.

Compared with TTEYTFTDDEEARRAIEELKKRGLTFRSEKHGTTWRVRVD [Y28S], TTEYTFTDDEEARRAIEELKKRGLTFRAEKHGTTWRVRVD [Y28A] is higher in “folding stability dG” value: 1.34 kcal/mol for the first, 2.4 kcal/mol for the second.

Going from TTEYTFTDDEEARRAIEELKKRGLTFREEKHGTTWRVRVD [Y28E] to TTEYTFTDDEEARRAIEELKKRGLTFRGEKHGTTWRVRVD [Y28G], the “folding stability dG” value falls from 0.447 kcal/mol to 0.032 kcal/mol.

Compared with TTEYTFTDDEEARRAIEELKKRGLTFRTEKHGTTWRVRVD [Y28T], TTEYTFTDDEEARRAIEELKKRGLTFRVEKHGTTWRVRVD [Y28V] is higher in “folding stability dG” value: 1.78 kcal/mol for the first, 3.23 kcal/mol for the second.

Going from TTEYTFTDDEEARRAIEELKKRGLTFRIEKHGTTWRVRVD [Y28I] to TTEYTFTDDEEARRAIEELKKRGLTFRMEKHGTTWRVRVD [Y28M], the “folding stability dG” value falls from 2.95 kcal/mol to 1.86 kcal/mol.

First: TTEYTFTDDEEARRAIEELKKRGLTFRLEKHGTTWRVRVD [Y28L]
Second: TTEYTFTDDEEARRAIEELKKRGLTFGYEKHGTTWRVRVD [R27G]
The “folding stability dG” value of the first is higher: 2.15 kcal/mol for the first, 1.37 kcal/mol for the second.

First: TTEYTFTDDEEARRAIEELKKRGLTFSYEKHGTTWRVRVD [R27S]
Second: TTEYTFTDDEEARRAIEELKKRGLTFDYEKHGTTWRVRVD [R27D]
The “folding stability dG” value of the first is higher: 2.73 kcal/mol for the first, 1.62 kcal/mol for the second.

Compared with TTEYTFTDDEEARRAIEELKKRGLTFNYEKHGTTWRVRVD [R27N], TTEYTFTDDEEARRAIEELKKRGLTFYYEKHGTTWRVRVD [R27Y] is higher in “folding stability dG” value: 1.91 kcal/mol for the first, 2.42 kcal/mol for the second.

First: TTEYTFTDDEEARRAIEELKKRGLTFQYEKHGTTWRVRVD [R27Q]
Second: TTEYTFTDDEEARRAIEELKKRGLTFWYEKHGTTWRVRVD [R27W]
The “folding stability dG” value of the first is lower: 2.25 kcal/mol for the first, 2.77 kcal/mol for the second.

First: TTEYTFTDDEEARRAIEELKKRGLTFVYEKHGTTWRVRVD [R27V]
Second: TTEYTFTDDEEARRAIEELKKRGLTFAYEKHGTTWRVRVD [R27A]
The “folding stability dG” value of the first is higher: 2.51 kcal/mol for the first, 2.1 kcal/mol for the second.

First: TTEYTFTDDEEARRAIEELKKRGLTFMYEKHGTTWRVRVD [R27M]
Second: TTEYTFTDDEEARRAIEELKKRGLTFLYEKHGTTWRVRVD [R27L]
The “folding stability dG” value of the first is higher: 2.03 kcal/mol for the first, 1.74 kcal/mol for the second.

First: TTEYTFTDDEEARRAIEELKKRGLTFHYEKHGTTWRVRVD [R27H]
Second: TTEYTFTDDEEARRAIEELKKRGLTFIYEKHGTTWRVRVD [R27I]
The “folding stability dG” value of the first is higher: 2.39 kcal/mol for the first, 2.29 kcal/mol for the second.

First: TTEYTFTDDEEARRAIEELKKRGLTFFYEKHGTTWRVRVD [R27F]
Second: TTEYTFTDDEEARRAIEELKKRGLTFTYEKHGTTWRVRVD [R27T]
The “folding stability dG” value of the first is lower: 2.29 kcal/mol for the first, 3.02 kcal/mol for the second.

First: TTEYTFTDDEEARRAIEELKKRGLTFEYEKHGTTWRVRVD [R27E]
Second: TTEYTFTDDEEARRAIEELKKRGLTFKYEKHGTTWRVRVD [R27K]
The “folding stability dG” value of the first is higher: 2.02 kcal/mol for the first, 2 kcal/mol for the second.

Going from TTEYTFTDDEEARRAIEELKKRGLTFRYEKAGTTWRVRVD [H31A] to TTEYTFTDDEEARRAIEELKKRGLTFRYEKFGTTWRVRVD [H31F], the “folding stability dG” value rises from 1.75 kcal/mol to 2.15 kcal/mol.

Compared with TTEYTFTDDEEARRAIEELKKRGLTFRYEKKGTTWRVRVD [H31K], TTEYTFTDDEEARRAIEELKKRGLTFRYEKWGTTWRVRVD [H31W] is lower in “folding stability dG” value: 2.06 kcal/mol for the first, 1.89 kcal/mol for the second.

Compared with TTEYTFTDDEEARRAIEELKKRGLTFRYEKVGTTWRVRVD [H31V], TTEYTFTDDEEARRAIEELKKRGLTFRYEKGGTTWRVRVD [H31G] is lower in “folding stability dG” value: 2.56 kcal/mol for the first, 0.625 kcal/mol for the second.

First: TTEYTFTDDEEARRAIEELKKRGLTFRYEKMGTTWRVRVD [H31M]
Second: TTEYTFTDDEEARRAIEELKKRGLTFRYEKLGTTWRVRVD [H31L]
The “folding stability dG” value of the first is lower: 2.18 kcal/mol for the first, 2.29 kcal/mol for the second.

Going from TTEYTFTDDEEARRAIEELKKRGLTFRYEKTGTTWRVRVD [H31T] to TTEYTFTDDEEARRAIEELKKRGLTFRYEKNGTTWRVRVD [H31N], the “folding stability dG” value falls from 2.29 kcal/mol to 2.21 kcal/mol.

Going from TTEYTFTDDEEARRAIEELKKRGLTFRYEKEGTTWRVRVD [H31E] to TTEYTFTDDEEARRAIEELKKRGLTFRYEKSGTTWRVRVD [H31S], the “folding stability dG” value falls from 2.24 kcal/mol to 2.1 kcal/mol.

First: TTEYTFTDDEEARRAIEELKKRGLTFRYEKYGTTWRVRVD [H31Y]
Second: TTEYTFTDDEEARRAIEELKKRGLTFRYEKDGTTWRVRVD [H31D]
The “folding stability dG” value of the first is lower: 2.04 kcal/mol for the first, 2.39 kcal/mol for the second.

First: TTEYTFTDDEEARRAIEELKKRGLTFRYEKQGTTWRVRVD [H31Q]
Second: TTEYTFTDDEEARRAIEELKKRGLTFRYEKRGTTWRVRVD [H31R]
The “folding stability dG” value of the first is higher: 2.21 kcal/mol for the first, 1.99 kcal/mol for the second.

First: TTEYTFTDDEEARRAIEELKKRGLTFRYEKIGTTWRVRVD [H31I]
Second: TTEYTFTDDEEARRAIEELKKRGLHFRYEKHGTTWRVRVD [T25H]
The “folding stability dG” value of the first is higher: 2.81 kcal/mol for the first, 2.25 kcal/mol for the second.

First: TTEYTFTDDEEARRAIEELKKRGLQFRYEKHGTTWRVRVD [T25Q]
Second: TTEYTFTDDEEARRAIEELKKRGLRFRYEKHGTTWRVRVD [T25R]
The “folding stability dG” value of the first is lower: 2.01 kcal/mol for the first, 2.27 kcal/mol for the second.

First: TTEYTFTDDEEARRAIEELKKRGLWFRYEKHGTTWRVRVD [T25W]
Second: TTEYTFTDDEEARRAIEELKKRGLNFRYEKHGTTWRVRVD [T25N]
The “folding stability dG” value of the first is higher: 2.28 kcal/mol for the first, 2.12 kcal/mol for the second.

Going from TTEYTFTDDEEARRAIEELKKRGLIFRYEKHGTTWRVRVD [T25I] to TTEYTFTDDEEARRAIEELKKRGLYFRYEKHGTTWRVRVD [T25Y], the “folding stability dG” value falls from 2.14 kcal/mol to 2.07 kcal/mol.

Compared with TTEYTFTDDEEARRAIEELKKRGLGFRYEKHGTTWRVRVD [T25G], TTEYTFTDDEEARRAIEELKKRGLMFRYEKHGTTWRVRVD [T25M] is higher in “folding stability dG” value: 1.49 kcal/mol for the first, 1.95 kcal/mol for the second.

Going from TTEYTFTDDEEARRAIEELKKRGLVFRYEKHGTTWRVRVD [T25V] to TTEYTFTDDEEARRAIEELKKRGLPFRYEKHGTTWRVRVD [T25P], the “folding stability dG” value falls from 2.08 kcal/mol to 1.84 kcal/mol.

Compared with TTEYTFTDDEEARRAIEELKKRGLEFRYEKHGTTWRVRVD [T25E], TTEYTFTDDEEARRAIEELKKRGLSFRYEKHGTTWRVRVD [T25S] is higher in “folding stability dG” value: 1.58 kcal/mol for the first, 2.29 kcal/mol for the second.

First: TTEYTFTDDEEARRAIEELKKRGLKFRYEKHGTTWRVRVD [T25K]
Second: TTEYTFTDDEEARRAIEELKKRGLLFRYEKHGTTWRVRVD [T25L]
The “folding stability dG” value of the first is higher: 2.25 kcal/mol for the first, 1.97 kcal/mol for the second.

In the case of TTEYTFTDDEEARRAIEELKKRGLFFRYEKHGTTWRVRVD [T25F], the “folding stability dG” value is reported as 2.15 kcal/mol.
